The nature of the data set: amyloid nucleation score (Sup35N fusion, yeast selection) (log enrichment); library NNK3; higher = more nucleation; inactive = no reads after selection. Put shortly: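 Random libraries were run with three technical output replicates. In each, psi-negative yeast expressing Sup35N fused to peptides of 20 random codons were induced 24 hours with 100 μM copper sulfate and grown 7 days at 30°C on medium lacking adenine and uracil, and input and output plasmid inserts were Illumina-sequenced. The nucleation score is the DiMSum log enrichment of output over input reads, centred on the mode score of non-aggregating sequences, and sequences under 100 input reads were excluded.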

± gives the uncertainty stated by the source.

With NSWVNSPFNLS, the amyloid nucleation score entry is “inactive”.
The substance LKTTDLLPQVTCPHLCILFL displayed an amyloid nucleation score of 0.808 ± 0.23.
As for SQLRP, the entry is “inactive”; as for CMAIVATATRSGPVGRSLAK, 0.508 ± 0.33.
For STVCWHMQRVASTVAL, the amyloid nucleation score entry is “inactive”.
As for LSGLESVRSSYDWVVGGWIS, the figure is -0.329 ± 1.3; as for GWGVHWFYIMVINHLF, “inactive”.
With FIWSAGGIITSHNCLYWQAS, the amyloid nucleation score entry was “inactive”.
Regarding LEMTSCTNLLHKRELVSWHR, the amyloid nucleation score entry was “inactive”.
For the substance LLIRTSLVGEIPLSVSVGCL, the amyloid nucleation score entry was “inactive”.
As for SVERILLYGRCCFVRRA, the figure is 0.403 ± 0.2.
Consider SSFTKLPFL, for which the amyloid nucleation score result is “inactive”.
TCSTGAGNFCVCDFRLVRMR: the amyloid nucleation score result is “inactive”.
For HLYDKSMNVGSRSARAELSM, the amyloid nucleation score result is “inactive”.
As for YLRVWPMRVYNMP, the entry is “inactive”; as for LIYTGSAIIINRIWE, 2.17 ± 0.08; as for KCSNLVAFVI, “inactive”.
As for PGGKVANESMQSSTHDDPGR, the entry is “inactive”.
As for YAALWITYCLSSTTSRDDLD, the entry is “inactive”; as for FNSMYRVELVHCCSHNKICD, 1.41 ± 0.1; as for PFCVMDLSIKWGNMYYFLQT, “inactive”.
Consider IPFLDKGYGR, for which the amyloid nucleation score entry was “inactive”.
As for KLTVMVMQLASLRLAK, the figure is -0.158 ± 0.35; as for NWFWLF, “inactive”.
Take LQYFTYLGQCLKRETHHFLR: the amyloid nucleation score entry was “inactive”.
As for DVCTLSELSVFPSLSISQ, the entry is “inactive”.
ASHYTVSFFSENDAHRGACR: the amyloid nucleation score result was “inactive”.
As for RSTTTMEYWFSCAVYSPKSV, the figure is 0.682 ± 0.12; as for ATPFGWDHN, “inactive”.
Turning to GCFILLNWVMQGKLAYTSLI, the amyloid nucleation score result is “inactive”.
Turning to FVASHLVVAKGVKASVRKFY, the amyloid nucleation score came out at 1.31 ± 0.089.
As for YSDTFADNYLNCMHQVKCVN, the entry is “inactive”; as for AGFLRDLMCDHLEDDGVPAV, “inactive”.
As for SCYCN, the entry is “inactive”.
As for TNRPMNGSYNNMWSRINLMV, the entry is “inactive”.
Turning to YPCERYHRPHDQQNVDLTNL, the amyloid nucleation score entry was “inactive”.
For the substance LLYRWVGFHLIKLSVNAWLS, the amyloid nucleation score is -1.01 ± 2.4.
In turn, ILQKQVTTRLSINSENLHL showed an amyloid nucleation score of 0.256 ± 0.21.
As for RLFFGYCRMDVIFAPYISCV, the entry is “inactive”; as for GWFRSQSMPIALEYLTGPGS, “inactive”.
As for RSLDD, the entry is “inactive”; as for PLSTITDGLMRSLVTLVGHS, “inactive”.
Regarding LIWFGGGPSRWSM, the amyloid nucleation score is -0.117 ± 1.1.
As for HMMTRAASVSLSVQQ, the entry is “inactive”; as for LFDLWNRVF, “inactive”; as for RYYIMILLS, “inactive”.
As for YYTGFTIFLLRVWLLAGVGS, the entry is “inactive”; as for KRGNQGGAMEDFLCNADIRV, “inactive”.
Turning to SRCPMADCMRKPRGGCSVGR, the amyloid nucleation score result was “inactive”.
With VGDVKAISVGCVGVLEFSAA, the amyloid nucleation score entry is “inactive”.
As for RDVVCRRMRTRVLSSHAPPR, the amyloid nucleation score result is “inactive”.
As for DDCIKPYSLIYTQRHTPRDI, the entry is “inactive”; as for VLSVWDHLYLRNSSCAPTYR, -0.641 ± 1.4.
In the case of CLTYHSCIFRVHLFTISINV, the amyloid nucleation score entry is “inactive”.
With FVSIWEHNSIVRRCGVRLDR, the amyloid nucleation score entry was “inactive”.
As for LGIAPDHMSCSGVNRKCGYS, the entry is “inactive”.
Substance PNAIILVQYTYIVGMRGGHS registered an amyloid nucleation score of 1.11 ± 0.08.
As for FRRSVK, the entry is “inactive”.
As for RFTCKYLPTLLTGVIRGPSP, the entry is “inactive”.
As for SIHCIYSWR, the figure is 1.27 ± 0.12; as for YVVRN, “inactive”; as for TCGVVSPRGMSNMLCLGGWS, “inactive”.
On to VNDVLASLTLCMWLVEWGMK, for which the amyloid nucleation score entry is “inactive”.
For RLNYWMTDDGCGRSCDTRVE, the amyloid nucleation score result is “inactive”.
Regarding HTVLILVCAFKNAG, the amyloid nucleation score result is “inactive”.
Take SMRLVAWYW: the amyloid nucleation score entry is “inactive”.
As for CFNNKVVNTWRICMVGLSLS, the entry is “inactive”; as for SHRVNWFLCSCLESYFMCNT, -0.522 ± 0.78.
For the substance KLSSKY, the amyloid nucleation score result was “inactive”.
As for KRCIYKSNGI, the entry is “inactive”; as for FWTSLPFVGHNNISCRLPTP, “inactive”.
As for DCARFILIT, the entry is “inactive”.
On to FGYSLMLVTACVLRCQSLWS, for which the amyloid nucleation score entry was “inactive”.
Turning to HLNYYGAL, the amyloid nucleation score entry is “inactive”.
Regarding GVIFEISVSCVQTFCPFHYL, the amyloid nucleation score worked out at 1.21 ± 0.093.
Take PQDKRASACRVWAPNKNGRG: the amyloid nucleation score result was “inactive”.
As for PIGGLEFNMGFRYRVIRVTM, the figure is -0.436 ± 1.7.
With KYIQIDKVFH, the amyloid nucleation score result was “inactive”.
For SVIIRRGTSQPNRVSWNKVK, the amyloid nucleation score result is “inactive”.
As for RYLRKEDDWFIDRAVD, the entry is “inactive”.
As for FVVIAYTEDTGDYRMVLTQW, the amyloid nucleation score entry was “inactive”.
As for VYFSDVV, the entry is “inactive”.
Regarding KERVNRSLTYTVFSS, the amyloid nucleation score entry is “inactive”.
As to TIWSITFLGCKLELTEKCLV, the amyloid nucleation score came out at 0.979 ± 0.24.
As for FIDNRGSDSSTICCYNYAAQ, the figure is 0.407 ± 0.61.
As for GFLGCRSETFWRVVVTKRKV, the entry is “inactive”; as for NRWIRLLNAISWGYLRMLMV, “inactive”.
As for KSTTACASRTYMCMHTGRNC, the entry is “inactive”.
Turning to ANCINRV, the amyloid nucleation score entry is “inactive”.
As for KLQEDKLGPSKNKPSVHLCF, the entry is “inactive”; as for GLRVTH, “inactive”.
As for RFVAHG, the entry is “inactive”; as for TWLGLLCREGSSNWV, “inactive”.
As for RLHLAPTNCREVNWPTLWLA, the amyloid nucleation score was -0.565 ± 1.8.
As for RTMLTQFPCYWVSIHSVLVS, the entry is “inactive”; as for FMVSRMYEWCVCSVQCLMLF, “inactive”.
As for YLDLFLWIREMLYYTGSLRV, the entry is “inactive”; as for TRLSSFRKIKEIYLLTQWKP, “inactive”; as for ILRNRNDIQNAYCRNKY, “inactive”.
Consider FMTLMVTLYLRLYSRSYGPQ, for which the amyloid nucleation score result was “inactive”.
Take NHVILKNFFLMLQCYNFTTM: the amyloid nucleation score entry is “inactive”.
As to RYWWNYWLLPRWFFVQLGSC, the amyloid nucleation score result was “inactive”.
For the substance SSWSSRATLMLSSEVKSDMV, the amyloid nucleation score entry was “inactive”.
For NFIYILLSIINYWWCTYIVY, the amyloid nucleation score entry is “inactive”.
With AYNFEHFPDETSAQGHVY, the amyloid nucleation score result is “inactive”.
As for AQGKSRPYPLSNSPSGVRRS, the entry is “inactive”.
As for VGNSHASIHPCKVICSLACD, the entry is “inactive”; as for KKDQTMVES, “inactive”; as for KVGIF, “inactive”.
Turning to LLNRDI, the amyloid nucleation score entry was “inactive”.
As for ELLHKAF, the entry is “inactive”.
As for RLMNFVPSFVFCCFYKK, the figure is 1.27 ± 0.14; as for VARPCFRERNHSPI, “inactive”.
Regarding WILLCIRRRMFCRGMCTINN, the amyloid nucleation score entry was “inactive”.
As for WPSYSRLQTDFRGTGFFFRG, the entry is “inactive”.
As for TLSLACGSYVQCSMEFLSSG, the figure is 1.6 ± 0.08; as for YSSVILVY, 0.156 ± 0.48; as for SRWVIGHVNTGSGGLESDKR, “inactive”.
As for LLEIPNSRDGFHRGSTVGDL, the amyloid nucleation score entry is “inactive”.
As for SMYLYVAWARVLNDLDNID, the amyloid nucleation score entry is “inactive”.
As for RWSLYLGRSRMKLRATVHSF, the entry is “inactive”; as for SLNMLDFFYSLFGVCNKTVL, “inactive”.
For SRFGMHKDTKMWSSRCRCVR, the amyloid nucleation score result is “inactive”.
For SQDFKLPSLSTFYRHGMEPS, the amyloid nucleation score result is “inactive”.
Take RVYVLLLNGQPFCRKYRL: the amyloid nucleation score entry was “inactive”.
As for MWACSKYRWMHATDGVGLTY, the figure is 0.674 ± 0.17; as for RVLQKAPRWAMGFARW, “inactive”.
As for LSAADSMCGKRCLRGTP, the entry is “inactive”.
As for QHYLVYY, the entry is “inactive”; as for SRFNMFNLS, 0.163 ± 0.34.
Regarding NLDYLVNLLCDYLES, the amyloid nucleation score was -0.703 ± 1.9.

These data come from the supplement of paper PMC12042874.
